The supplement of paper PMC7877785
± gives the uncertainty stated by the source.

Assay: self-splicing fitness, log relative to wild type (ln ratio); higher = more splicing; Tetrahymena group I intron in knt gene, E. coli kanamycin selection, DiMSum; sequences stand for … in CUCUCU…GGAGGGAAAAGUUAUCAGGCAUGCACCUGGUAGCUAGUCUUUAAACCAAUAGAUUGCAUCGGUUUAAAAGGCAAGACCGUCAAAUUGCGGGAAAGGGGUCAACAGCCGUUCAGUACCAAGUCUCAGGGGAAACUUUGAGAUGGCCUUGCAAAGGGUAUGGUAAUAAGCUGACGGACAUGGUCCUAACCACGCAGCCAAGUCCUAAGUCAACAGAUCUUCUGUUGAUAUGGAUGCAGUUCACAGACUAAAUGUCGGUCGGGGAAGAUGUAUUCUUCUCAUAAGAUAUAGUCGGACCUCUCCUUAAUGGGAGCUAGCGGAUGAAGUGAUGCAACACUGGAGCCGCUGGGAACUAAUUUGUAUGCGAAAGUAUAUUGAUUAGUUUUGGAGUACUCGUGGUCG
How it was run: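 Fitness was computed with DiMSum as the error-weighted combination of replicate fold changes, kanamycin versus none, each normalised to wild type. The library randomised all eight intron nucleotides of the P1ex region, with the intron placed in the knt kanamycin-resistance gene on pET-22b(+) in E. coli BL21(DE3). Six replicate transformations were grown overnight at 37°C or 30°C on LB agar with or without 25 μg/mL kanamycin, plus 100 μg/mL carbenicillin, 50 μM IPTG and 0.2% rhamnose. Pooled colonies were amplicon-sequenced on an Illumina HiSeq 2500.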

Sequence | self-splicing fitness (ln) (30 °C) | self-splicing fitness (ln) (37 °C)
AAGGAGCAAUAUUACGUGUU | -3.55 ± 0.14 | -3.5 ± 0.24
UUUUAGCAAUAUUACGAAUC |  | -1.38 ± 0.4
AGUGAGCAAUAUUACGGUUA | -2.29 ± 0.23 | -2.48 ± 0.2
CCUUAGCAAUAUUACGAAGC | -3.24 ± 0.3 | -1.56 ± 0.32
UUAAAGCAAUAUUACGUCUA | 0.0872 ± 0.095 | 0.626 ± 0.11
GGGGAGCAAUAUUACGAUGG | -2.44 ± 0.45 | -2.67 ± 0.44
UCCGAGCAAUAUUACGGAGC | -3.17 ± 0.25 | -2.67 ± 0.26
CAUAAGCAAUAUUACGUAAG | 0.111 ± 0.062 | 0.3 ± 0.079
GCUUAGCAAUAUUACGUGCG | -1.23 ± 0.09 | -0.6 ± 0.12
CGCGAGCAAUAUUACGUCCG | -2.81 ± 0.37 | 1.32 ± 0.29
AGCAAGCAAUAUUACGCACC | -0.646 ± 0.14 | 0.533 ± 0.18
CACUAGCAAUAUUACGGCAA | -4.1 ± 0.42 | -2.08 ± 0.18
UUAGAGCAAUAUUACGGCCC | -3.84 ± 0.36 | -1.52 ± 0.32
UGUAAGCAAUAUUACGUAGC |  | -1.96 ± 0.45
GGCUAGCAAUAUUACGACGC | -0.655 ± 0.41 | 0.803 ± 0.43
CGCGAGCAAUAUUACGCGAA | -3.88 ± 0.43 | -2.65 ± 0.23
UCACAGCAAUAUUACGUGGU | -4.05 ± 0.19 | -3.15 ± 0.18
CACGAGCAAUAUUACGAGUA | -2.53 ± 0.16 | -2.11 ± 0.22
GGCAAGCAAUAUUACGUGUC | -2.42 ± 0.11 | -3.08 ± 0.17
AAGGAGCAAUAUUACGGUCU | -2.3 ± 0.15 | -0.298 ± 0.12
AAGGAGCAAUAUUACGAACG |  | -0.373 ± 0.27

Sequence | self-splicing fitness (ln) (30 °C) | self-splicing fitness (ln) (37 °C)
GUAUAGCAAUAUUACGAAGG | -3.44 ± 0.36 | -1.61 ± 0.29
GGCCAGCAAUAUUACGCAUU | -0.554 ± 0.05 | 0.109 ± 0.067
UACUAGCAAUAUUACGUUCU | -2.47 ± 0.25 | -1.03 ± 0.19
UGGGAGCAAUAUUACGUCUU | -3.74 ± 0.35 | -2.54 ± 0.3
GAUAAGCAAUAUUACGAUGC | -0.7 ± 0.11 | -0.45 ± 0.11
GUCAAGCAAUAUUACGAGGC | -3.94 ± 0.24 | -2.83 ± 0.18
UCAUAGCAAUAUUACGUUUC | -3.79 ± 0.43 | -1.72 ± 0.23
CCCAAGCAAUAUUACGAAGG | -3.19 ± 0.17 | -2.42 ± 0.17
CGGAAGCAAUAUUACGUACC | -2.22 ± 0.066 | -0.907 ± 0.085
AUGGAGCAAUAUUACGUGCC | -2.59 ± 0.25 | -2.25 ± 0.45
AUUCAGCAAUAUUACGGAUA | -1.72 ± 0.17 | -1.17 ± 0.14
ACAGAGCAAUAUUACGAUCU | -1.68 ± 0.22 | 
ACUGAGCAAUAUUACGUUUC | -3.19 ± 0.27 | -2.6 ± 0.23
UAAGAGCAAUAUUACGGCGC | -2.68 ± 0.32 | -2.01 ± 0.41
UUUAAGCAAUAUUACGGGCA | -1.05 ± 0.12 | -0.851 ± 0.14
AAAGAGCAAUAUUACGAUUU | -0.695 ± 0.14 | 0.468 ± 0.13
UUACAGCAAUAUUACGUUUG | -1.54 ± 0.074 | -1.14 ± 0.094
UUUAAGCAAUAUUACGAACG | -1.08 ± 0.18 | 0.0714 ± 0.21
CAAUAGCAAUAUUACGGCCA | -3.08 ± 0.3 | -1.49 ± 0.32
AGUCAGCAAUAUUACGCUGA | -2.55 ± 0.19 | -2.24 ± 0.22
CAGAAGCAAUAUUACGUGAA | -3.07 ± 0.13 | -1.16 ± 0.12

Sequence | self-splicing fitness (ln) (30 °C) | self-splicing fitness (ln) (37 °C)
GGCCAGCAAUAUUACGACUG | -0.744 ± 0.12 | -0.348 ± 0.15
GAGUAGCAAUAUUACGCUGU | -3.36 ± 0.23 | -1.48 ± 0.22
AGAGAGCAAUAUUACGUCCU | -2.25 ± 0.12 | -0.89 ± 0.13
CCGAAGCAAUAUUACGGGUA | -4.26 ± 0.3 | -2.35 ± 0.22
GUCUAGCAAUAUUACGAUAG |  | -2.96 ± 0.27
GGCGAGCAAUAUUACGUAUG | -1.78 ± 0.14 | -1.01 ± 0.14
AUAUAGCAAUAUUACGUGAG | -1.81 ± 0.063 | -0.565 ± 0.096
CGCGAGCAAUAUUACGUUAG | -3.74 ± 0.21 | -1.33 ± 0.18
GUACAGCAAUAUUACGAGAA | -2.36 ± 0.45 | -1.51 ± 0.27
GAACAGCAAUAUUACGUACG | -0.821 ± 0.081 | -0.0209 ± 0.11
CCGGAGCAAUAUUACGAGCU | -2.94 ± 0.35 | -1.84 ± 0.49
GAGUAGCAAUAUUACGACCA | -1.81 ± 0.12 | 0.176 ± 0.15
GUCGAGCAAUAUUACGAAAG | -2.57 ± 0.29 | -2.2 ± 0.35
GGCUAGCAAUAUUACGGCUC | -3.26 ± 0.3 | 
CCACAGCAAUAUUACGCUUG | -2.66 ± 0.075 | -1.96 ± 0.083
ACCAAGCAAUAUUACGACAG | -1.81 ± 0.078 | -1.82 ± 0.11
GCACAGCAAUAUUACGAUUC | -0.739 ± 0.11 | 1.44 ± 0.15
UCGCAGCAAUAUUACGACGA | -1.67 ± 0.17 | -0.408 ± 0.14
UAUGAGCAAUAUUACGGGAA |  | -2.7 ± 0.41
AGAAAGCAAUAUUACGGGUG | -1.41 ± 0.089 | -1.36 ± 0.14
